Consider 130 variants from the emibetuzumab library of Makowski et al. (2022).

The chains are these.
B1: VH:VL chains; a variant is named by its letters at X, in order (parent)
chain 1: QVQLVQSGAEVKKPGASVKVSCKASGYTFTDYXMHWVRQAPGQGLEWMGXVNPNXXXTTYNQKFEGRVTMTTDTSTSTAYMELRSLRSDDTAVYYCARXNXLDXWGQGTTVTVSS
chain 2: DIQMTQSPSSLSASVGDRVTITCSVSSSVSSIYLHWYQQKPGKAPKLLIYSTSNLASGVPSRFSGSGSGTDFTLTISSLQPEDFATYYCQVYSGYPLTFGGGTKVEIK

In the data set the parent is B1. As to the kind of experiment: yeast display scFab, FACS + sequencing. In outline:
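Non-specific binding was called from deep sequencing of sorted yeast cells displaying a heavy-chain CDR mutant scFab library. Cells labelled with anti-Myc and biotinylated ovalbumin (260 μg/mL in PBSB, 3 h, room temperature) or soluble membrane proteins (130 μg/mL, 20 min on ice) were FACS-sorted, collecting the top 25% and bottom 10% of binders from two replicates. A sequence was positive when present in ≥3 of 4 pooled positive samples and absent from all negatives, and negative under the converse rule.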
FRRGSSVV: the non-specific binding call was “binds”. Take ARRGSAVS: the non-specific binding call is recorded as “binds”. YRRKGAGD: the non-specific binding call is on record as “binds”.

YRRKGDAD: the non-specific binding call is reported as “binds”. As for YRRRGDVD, the non-specific binding call is recorded as “binds”.

For the variant YRRRGDVV, the non-specific binding call is given as “binds”. Regarding YRRRGDVY, the non-specific binding call was “binds”. Take FRRGGAWY: the non-specific binding call is on record as “binds”. On to FRRGGAWV, for which the non-specific binding call is “binds”. In the case of FRRGGAWD, the non-specific binding call is “binds”.

Consider VRRGGAAS, for which the non-specific binding call is “binds”. YRRRGSSF: the non-specific binding call was “binds”.

Turning to YRRRGSSD, the non-specific binding call was “binds”. As to YRRRGSSA, the non-specific binding call is given as “binds”.

With YRRRGSSS, the non-specific binding call is on record as “binds”. Take YRRRGVGA: the non-specific binding call is on record as “binds”. Turning to YRRRGVGD, the non-specific binding call was “binds”. Under YRRGGYAV stands “binds”. For the variant YRRGGFVV, the non-specific binding call is “binds”.

Regarding FRRRDAAF, the non-specific binding call was “binds”. On to YRRGGSLS, for which the non-specific binding call is “binds”. Consider FRRGGALD, for which the non-specific binding call is “binds”. With VRRRGAAD, the non-specific binding call is recorded as “binds”. For the variant YRRRGFVV, the non-specific binding call is recorded as “binds”. Regarding YRRRGFVA, the non-specific binding call is reported as “binds”. As to YRRRGFVD, the non-specific binding call is “binds”. In the case of YRRGGDGA it was “binds”; in that of VRRGSSVV, “binds”; in that of VRRGSSVS, “binds”. YRRRGSGS: the non-specific binding call is reported as “binds”. Under YRRRGSGY stands “binds”; under YRRRGSGV, “binds”. In the case of YRRRGSGA it was “binds”. For YRRRGSGF, the non-specific binding call is reported as “binds”. In the case of ARRGGSGS it was “binds”; in that of ARRGGSGF, “binds”; in that of DRRRGALD, “binds”.

Consider YRRKDALA, for which the non-specific binding call is given as “binds”. In the case of VRRRGALA, the non-specific binding call is given as “binds”. Take VRRRGALD: the non-specific binding call is on record as “binds”. Under VRRGGAWV stands “binds”. Turning to ARRGSSLD, the non-specific binding call was “no binding”. Regarding YRRGSAWA, the non-specific binding call is recorded as “binds”. On to YRRGGVGA, for which the non-specific binding call is listed as “binds”. As for YRRGGVGV, the non-specific binding call is “binds”. For VRRGSDGV, the non-specific binding call is given as “no binding”. With YRRGGAVA, the non-specific binding call is “binds”.

As to YRRGGAVS, the non-specific binding call is “binds”. Under VRRRGAVV stands “binds”; under FRRRGSLY, “binds”; under FRRRGSLV, “binds”. VRRRGSGD: the non-specific binding call was “binds”. For YRRRGFGS, the non-specific binding call is recorded as “binds”. YRRRGFGY: the non-specific binding call was “binds”. As to YRRRGFGD, the non-specific binding call is “binds”. As to YRRRGFGV, the non-specific binding call is on record as “binds”. In the case of YRRRGFGA, the non-specific binding call was “binds”. In the case of ARRRGSGA it was “binds”; in that of VRRRGAGD, “binds”. Consider VRRRGAGV, for which the non-specific binding call is on record as “binds”. Under VRRGGSAA stands “binds”. Regarding ARRRGAWY, the non-specific binding call is “binds”. In the case of FRRRGSSD it was “binds”; in that of YRRKGSSA, “binds”.

YRRKGSSS: the non-specific binding call was “binds”.

For VRRGSSGD, the non-specific binding call was “binds”. In the case of YRRKGASV, the non-specific binding call is “binds”.

Turning to YRRRGFAA, the non-specific binding call is reported as “binds”. In the case of YRRRGFAV, the non-specific binding call is recorded as “binds”. Regarding FRRGGSVD, the non-specific binding call is given as “binds”. Take VRRRGSWV: the non-specific binding call was “binds”. With FRRGSALA, the non-specific binding call is “binds”. Under YRRGSFAA stands “binds”; under YRRGSSGS, “binds”. For YRRGSSGA, the non-specific binding call was “binds”.

As to YRRGSSGF, the non-specific binding call is given as “binds”.

As to VRRGGALD, the non-specific binding call is “binds”. With VRRGSASD, the non-specific binding call is “binds”.

In the case of FRRGSSGS, the non-specific binding call was “binds”.

For the variant FRRGSSGD, the non-specific binding call was “binds”.

Take FRRGSSGA: the non-specific binding call is reported as “binds”. As to VRRKDFLA, the non-specific binding call is given as “binds”.

Regarding ARRRGAAA, the non-specific binding call is “binds”. In the case of FRRGGSAA, the non-specific binding call is “binds”. For the variant FRRGGSAF, the non-specific binding call was “binds”. As to FRRGGSAD, the non-specific binding call is on record as “binds”.

As for YRRRGAAS, the non-specific binding call was “binds”. As for YRRRGAAA, the non-specific binding call is “binds”.

Take YRRRGAAY: the non-specific binding call was “binds”. As for YRRRGAAD, the non-specific binding call is reported as “binds”.

For YRRRGAAF, the non-specific binding call is “binds”.

Regarding YRRGSAGF, the non-specific binding call was “binds”. Take YRRGSAGS: the non-specific binding call is “binds”.

For YRRGGYVD, the non-specific binding call is “binds”.

As for YRRRGALY, the non-specific binding call was “binds”.

With YRRRGALF, the non-specific binding call was “binds”. Regarding YRRRGALA, the non-specific binding call was “binds”. In the case of YRRRGALS, the non-specific binding call is on record as “binds”. Under YRRGGSGA stands “binds”; under YRRGGSGD, “binds”. On to YRRGGSGY, for which the non-specific binding call is “binds”. For YRRGGSGS, the non-specific binding call is reported as “binds”. YRRKGSGA: the non-specific binding call is “binds”. For the variant YRRKGSGY, the non-specific binding call is “binds”. As for YRRGGSSA, the non-specific binding call is recorded as “binds”. In the case of YRRRGDAA it was “binds”; in that of YRRRGDAD, “binds”; in that of YRRGSSAA, “binds”.

Regarding YRRGSSAV, the non-specific binding call was “binds”.

For SRRRGALD, the non-specific binding call is “binds”. In the case of DRRGSDAV it was “no binding”; in that of FRRGGSGV, “binds”. Under FRRGGSGS stands “binds”; under SRRGSASS, “binds”; under YRRRGSVF, “binds”. Under YRRRGSVA stands “binds”; under YRRRGSVS, “binds”.

As to YRRRGSVD, the non-specific binding call is given as “binds”.

As to YRRRGSVV, the non-specific binding call was “binds”. For the variant YRRRGSAD, the non-specific binding call is recorded as “binds”. Consider YRRRGSAS, for which the non-specific binding call was “binds”. As to YRRRGSAF, the non-specific binding call is recorded as “binds”.

Take FRRGGAAS: the non-specific binding call is on record as “binds”.

Consider VRRGGSGS, for which the non-specific binding call is listed as “binds”. On to VRRGGSGD, for which the non-specific binding call is “binds”.

On to YRRGGSWV, for which the non-specific binding call is “binds”. For YRRGGSWD, the non-specific binding call is “binds”. Regarding YRRKGAAY, the non-specific binding call was “binds”.

Regarding FRRGGASA, the non-specific binding call was “binds”. Regarding FRRRGSGD, the non-specific binding call is “binds”.
